Reference: FireProtDB (doi:10.1016/j.ijbiomac.2008.12.016)
Several values for one entry are separate records, joined by “and”; a condition that tells them apart may be missing. Equal entries are not always repeated.

Settings: Oryctolagus cuniculus, pH 8, CD, Tris_HCl 10 mM; for denaturant midpoint (higher = more stable) / unfolding free energy: 25 °C, GdnHCl, reversible: Yes; for unfolding free energy: transition: 3; for Tm / change of melting temperature, mutant - wild type (higher = more stable): Thermal, reversible: No

Creatine kinase M-type D122N, P00563, sequence (P00563 whole entry D122N): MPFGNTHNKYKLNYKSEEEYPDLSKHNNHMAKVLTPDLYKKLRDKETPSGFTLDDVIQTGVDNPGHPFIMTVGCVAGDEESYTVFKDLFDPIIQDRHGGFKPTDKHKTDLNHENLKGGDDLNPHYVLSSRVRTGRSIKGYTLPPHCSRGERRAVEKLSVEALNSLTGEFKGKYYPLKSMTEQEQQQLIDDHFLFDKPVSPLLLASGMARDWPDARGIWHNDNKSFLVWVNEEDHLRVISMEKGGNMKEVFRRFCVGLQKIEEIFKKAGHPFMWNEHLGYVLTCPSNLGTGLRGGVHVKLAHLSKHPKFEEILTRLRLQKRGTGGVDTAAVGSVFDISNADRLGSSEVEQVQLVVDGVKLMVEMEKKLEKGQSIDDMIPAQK
Creatine kinase M-type D122A, P00563, sequence (P00563 whole entry D122A): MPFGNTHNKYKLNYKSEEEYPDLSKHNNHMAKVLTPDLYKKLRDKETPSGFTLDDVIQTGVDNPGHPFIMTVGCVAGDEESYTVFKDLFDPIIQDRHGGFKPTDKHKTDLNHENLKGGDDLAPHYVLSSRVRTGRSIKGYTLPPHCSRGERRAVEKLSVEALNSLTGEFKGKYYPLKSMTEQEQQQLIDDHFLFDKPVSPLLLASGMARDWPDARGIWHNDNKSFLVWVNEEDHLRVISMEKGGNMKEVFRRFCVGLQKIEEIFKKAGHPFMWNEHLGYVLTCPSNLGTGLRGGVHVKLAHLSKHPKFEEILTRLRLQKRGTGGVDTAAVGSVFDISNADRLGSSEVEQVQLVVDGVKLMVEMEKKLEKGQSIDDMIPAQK
Creatine kinase M-type wild type, P00563, sequence (P00563 whole entry): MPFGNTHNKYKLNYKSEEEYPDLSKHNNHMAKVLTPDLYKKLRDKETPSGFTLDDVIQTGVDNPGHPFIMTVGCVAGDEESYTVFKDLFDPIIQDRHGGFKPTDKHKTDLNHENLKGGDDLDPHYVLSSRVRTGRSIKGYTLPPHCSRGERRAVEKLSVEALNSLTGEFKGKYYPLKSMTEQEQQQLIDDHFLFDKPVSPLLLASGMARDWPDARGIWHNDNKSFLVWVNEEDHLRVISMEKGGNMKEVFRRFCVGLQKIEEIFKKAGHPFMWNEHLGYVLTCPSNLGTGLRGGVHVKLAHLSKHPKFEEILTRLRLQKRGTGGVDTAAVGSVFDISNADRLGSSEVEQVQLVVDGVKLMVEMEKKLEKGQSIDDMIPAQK

## Creatine kinase M-type D122A, P00563
Structure 2CRK
  denaturant midpoint (higher = more stable): 0.24 M
  unfolding free energy: 3.59 kcal/mol
  Tm: 59.1 °C
  change of melting temperature, mutant - wild type (higher = more stable): 0 °C

## Creatine kinase M-type D122N, P00563
Structure 2CRK
  denaturant midpoint (higher = more stable): 0.29 M
  unfolding free energy: 3.59 kcal/mol and 2.87 kcal/mol
  Tm: 61.2 °C
  change of melting temperature, mutant - wild type (higher = more stable): 2.1 °C

## Creatine kinase M-type wild type, P00563
  unfolding free energy: 3.59 kcal/mol and 4.06 kcal/mol
  Tm: 59.1 °C
